Assay results from article PMC6400189, “A three-domain copper-nitrite reductase with a unique sensing loop” (IUCrJ, 2019).

Tests used:
[1] = molecular target: Copper-containing nitrite reductase (NirK) from Thermus scotoductus SA-01 (Thermus scotoductus SA-01); assay: SEC; Superdex 200 10/300 column, 150 mM Tris-HCl pH 7.6, 0.5 ml/min, calibrated with mass markers; subunit mass by SDS-PAGE
[2] = molecular target: Copper-containing nitrite reductase (NirK) from Thermus scotoductus SA-01 (Thermus scotoductus SA-01); assay: crystal structure; twinned H3 crystals with one protomer in the asymmetric unit; trimer by the crystallographic threefold axis; data not shown
[3] = molecular target: Copper-containing nitrite reductase (NirK) from Thermus scotoductus SA-01 (Thermus scotoductus SA-01); assay: crystal structure; C121 crystal with the whole homotrimer in the asymmetric unit, 1.63 Å; 0.2 M CaCl2, 0.1 M HEPES sodium pH 7.5, 28% PEG 400, 16°C
[4] = substrate: O=NO; assay: nitrite reductase kinetics, methyl viologen standard assay; type: biochemical, Thermus scotoductus; details: methyl viologen (dithionite-reduced) as artificial electron donor per standard NirK assay; apparent constant

| Molecule | stoichiometry N [1] | stoichiometry N [2] | stoichiometry N [3] | Km [4] | kcat [4] |
| --- | --- | --- | --- | --- | --- |
| Copper-containing nitrite reductase (NirK) from Thermus scotoductus SA-01 (enzyme) | 3 | 3 | 3 |  |  |
| TsNirK (Thermus scotoductus SA-01) (protein, codon-optimised gene in pET-22b(+), E. coli BL21(DE3); 451-residue subunits (~50 kDa), homotrimer, three Cu per subunit; domains Ala20-Glu137, Leu154-Ala282, Arg309-Leu444) AERHFTLEARSSIFEVDQGVYLRGFSFNDMSPGPMLVVEEGDTVHITLRNLDNVTHGLSIHAANTQTSRFLGNVQPGETREFSFTADFPGVFMYHCAPGGHGIMAHTMGGQFGMIVVEPKEKYRMERELGRGPDLKLYIIQSEAYASGRDFYDGKALYVMFNGRNFRYVDEPIPVRPGDYLRIYFLNVGPNLTSTLHVVGGIFEYMYYQGNPKNLVVGAQTALAGPSDSWVIEWRVPPVEGDYTLVTHVFGTAIKGALGILRAKKDAPRIPEVRAEGVPGVKEIPASAKRVVDPYGLASPGHEHTVRVPLDPALAQPVAVGAKALEPLPVTVQMVGNSFYPKVLEIPVGTTVEFVNEDVFDLLEGERTGRHDAVVIDVQGPEPFVTPKLGHGERYRITFTKPGEYVYICSIHPYMKGIIRVYEPLSQRADSQ |  |  |  | 27 ± 2 µM | 65 ± 1 s⁻¹ |
